Data as given in PMC2788424, “The 3′-Phosphoadenosine 5′-Phosphosulfate Transporters, PAPST1 and 2, Contribute to the Maintenance and Differentiation of Mouse Embryonic Stem Cells” (PLoS ONE, 2009).

Substrate: Nc1ncnc2c1ncn2[C@@H]1O[C@H](COP(=O)(O)OS(=O)(=O)O)[C@@H](OP(=O)(O)O)[C@H]1O
Experiment: cells, lysate or membranes
Assay type: biochemical, Mus musculus
Conditions: labelled compound, 20 mM Tris-HCl pH 7.5, 0.25 M sucrose, 5 mM MgCl2, 1 mM MnCl2, 10 mM 2-mercaptoethanol, 32°C, 5 min

B1: PAPST1 (Mus musculus) (protein)
chain: MDARWWAVVVLATLPSLGAGGESPEAPPQSWTQLWLFRFLLNVAGYASFMVPGYLLVQYLRRKNYLETGRGLCFPLVKACVFGNEPKAPDEVLLAPRTETAESTPSWQVLKLVFCASGLQVSYLTWGILQERVMTGSYGATATSPGEHFTDSQFLVLMNRVLALVVAGLYCVLRKQPRHGAPMYRYSFASLSNVLSSWCQYEALKFVSFPTQVLAKASKVIPVMMMGKLVSRRSYEHWEYLTAGLISIGVSMFLLSSGPEPRSSPATTLSGLVLLAGYIAFDSFTSNWQDALFAYKMSSVQMMFGVNLFSCLFTVGSLLEQGALLEGARFMGRHSEFALHALLLSICSAFGQLFIFYTIGQFGAAVFTIIMTLRQAIAILLSCLLYGHTVTVVGGLGVAVVFTALLLRVYARGRKQRGKKAVPTEPPVQKV
Km: 1.54 µM

B2: PAPST2 (Mus musculus) (protein)
chain: MDLKFNNSRKYVSISVPSKTQAMSPHIKSVEDVVVLGVNLSKFSKLTQFLICVAGVFVFYLIYGYLQELIFSVEGFKPYGWYLTLVQFAFYSVFGLIELQLTQDRRRRIPGKTYMLIAFLTVGTMGLSNTSLGYLNYPTQVIFKCCKLIPVMLGGVFIQGKRYNLADVSAAVCMSLGLIWFTLADSTIAPNFNLTGVMLISLALCADAVIGNVQEKAMKLHNASNSEMVLYSYSIGFVYILLGLSCTSGLGPAVAFCSKNPVGTYGYAFLFSLTGYFGISFVLALIKIFGALLAVTVTTGRKAMTVVLSFLFFAKPFTFQYIWSGLLVVLGIFLNVYSKNMDKIRLPSVYNMIKKAMDMKKSRTLAQTV
Km: 1.49 µM
